Among the data in patent publication US20080032340A1 (UNIVERSITY OF ARIZONA, published 2008) are Kd values, retold here.

Test [1] addresses T1, NeutrAvidin (UniProt P02701 25-152, chemically deglycosylated and chemically modified to a more neutral isoelectric point (pI=6.3)).
T1 construct: Bought from Pierce; also called NA; deglycosylated avidin
Put plainly: HABA competition, 50 µM HABA-NeutrAvidin complex, absorbance at 500 nm, IC50 converted by Cheng-Prusoff. As for the experimental part:
(§1) After 60 minutes, the absorbance of the complex was monitored at 500 nm. To calculate the IC₅₀s of the selected peptides, the average of three separate trials were fitted to the Hill equation,
(§2) Best fit equations were calculated using KaleidaGraph (Synergy Software).

The target of the next test is T2, avidin (hen egg white (chicken), UniProt P02701 25-152, glycosylated native state).
T2 construct: Bought from Pierce; also called glycosylated parent of NeutrAvidin
Put plainly: HABA competition, 50 µM HABA-avidin complex, absorbance at 500 nm, IC50 converted by Cheng-Prusoff. Here is the method:
as §1, §2

Another test concerns the target T3, streptavidin (UniProt P22629 37-163, limits assumed).
T3 construct: Bought from Pierce; Used free in solution in the HABA assay and immobilized on agarose resin in the fusion protein experiments; also called agarose immobilized streptavidin
Description: HABA competition, 50 µM HABA-streptavidin complex, absorbance at 500 nm. As for the experimental part: (§3) FIG. 1: Competitive ligand binding analysis of […] Error bars indicate the standard deviation of three separate assays.
After 60 minutes, the absorbance of the complex was monitored at 500 nm. To calculate the IC₅₀s of the selected peptides, the average of three separate trials were fitted to the Hill equation, […]

The target in test [2] is T1, NeutrAvidin. Put plainly: HABA competition, uncyclized peptides (the filing cites 'FIG. 3B'; FIG. 1B holds these curves). Here is the method: as §3, §1, §2

Bridges are numbered along the chain shown (N, C = ends). Where no end group is shown, it is not given here.

B1: cyclized CDRASPYCG (SEQ ID NO: 7) (peptide)
peptide: CDRASPYCG-NH2
modifications: disulfide 1-8; N-terminus assumed
SMILES: C[C@@H]1NC(=O)[C@H](CCCNC(=N)N)NC(=O)[C@H](CC(=O)O)NC(=O)[C@@H](N)CSSC[C@@H](C(=O)NCC(N)=O)NC(=O)[C@H](Cc2ccc(O)cc2)NC(=O)[C@@H]2CCCN2C(=O)[C@H](CO)NC1=O
notes: Synthetic peptide from Fmoc synthesis on RinkAmide resin, oxidised in PBS with 10% DMSO; also called cyclic DRASPY peptide
In the case of B1, the Kd in the test with NeutrAvidin [1] is 31.5 µM; in the test with avidin, 44.9 µM; with streptavidin, above 5000 µM.

B2: uncyclized CDRATPYCG (SEQ ID NO: 9) (peptide)
peptide: CDRATPYCG-NH2
modifications: cysteine pairing not given here
notes: Same peptide as m2, used as the linear form; also called linear DRATPY peptide; acyclic counterpart
For B2, in the test with NeutrAvidin [2], the Kd is below 500 µM.

B3: cyclized CDRATPYCG (SEQ ID NO: 9) (peptide)
peptide: CDRATPYCG-NH2
modifications: disulfide 1-8; N-terminus assumed
SMILES: C[C@@H]1NC(=O)[C@H](CCCNC(=N)N)NC(=O)[C@H](CC(=O)O)NC(=O)[C@@H](N)CSSC[C@@H](C(=O)NCC(N)=O)NC(=O)[C@H](Cc2ccc(O)cc2)NC(=O)[C@@H]2CCCN2C(=O)[C@H]([C@@H](C)O)NC1=O
notes: Synthetic peptide from Fmoc synthesis on RinkAmide resin, oxidised in PBS with 10% DMSO; also called cyclic DRATPY peptide
With B3, the Kd with NeutrAvidin [1] was 12.5 µM; with avidin, 28.1 µM; in the test with streptavidin it was above 5000 µM.

B4: cyclized CDLASPWCG (SEQ ID NO: 5) (peptide)
peptide: CDLASPWCG-NH2
modifications: disulfide 1-8; N-terminus assumed
SMILES: CC(C)C[C@@H]1NC(=O)[C@H](CC(=O)O)NC(=O)[C@@H](N)CSSC[C@@H](C(=O)NCC(N)=O)NC(=O)[C@H](Cc2c[nH]c3ccccc23)NC(=O)[C@@H]2CCCN2C(=O)[C@H](CO)NC(=O)[C@H](C)NC1=O
notes: Synthetic peptide from Fmoc synthesis on RinkAmide resin, oxidised in PBS with 10% DMSO; also called cyclic DLASPW peptide
Take B4: the Kd in the test with NeutrAvidin [1] is 62.8 µM; with avidin it was 46.2 µM; with streptavidin, above 5000 µM.

B5: uncyclized CDRASPYCG (SEQ ID NO: 7) (peptide)
peptide: CDRASPYCG-NH2
modifications: cysteine pairing not given here
notes: Same peptide as m1, used as the linear form; also called linear DRASPY peptide; acyclic counterpart
With B5, the dissociation constant (Kd) in the test with NeutrAvidin [2] was below 500 µM.
